B1: UBE2R2 (parent)
chain: DPQSGELPSERWNPTQNVRTILLS
B2: SPOPL (parent)
chain: YTGRAPNLDKMADNLLAAADKYAL

Variants of: B1
Assay: protein stability index of a GFP-peptide fusion (GPS, HEK-293T) (PSI 1-6); higher = more stable
Details: c terminus: a fixed tail appended
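Note: lentivirally expressed fusions sorted by FACS into six bins by GFP to DsRed ratio, PSI derived from sequencing read proportions per bin multiplied by bin number.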

Protein stability index, by site and new letter:
N13: D 4.22, E 3.83
S4: I 3.4, C 3.61, T 3.16, A 3.15, N 2.99
P8: A 4.13, L 3.55, H 3.59, K 3.58, V 3.33
T15: P 3.14, Q 3.63
N17: H 3.04, K 3.23, S 2.9
W12: D 4.81, C 3.94, H 4.08
L23: K 4.74, S 4.08
S9: C 3.9, W 2.58, M 3.87, A 4.37
G5: P 2.66, F 3.18, N 3.96
P14: A 3.34, E 4.08, I 2.8
R19: M 2.86, Q 3.81
Q3: P 3.01
Q16: Y 2.54, T 4.14, D 3.97, R 3.81, F 2.5
V18: P 3.63, Q 4.2, Y 3.34
L22: D 4.43, F 3.54, K 4.41
P2: I 2.5, L 2.99, V 3.61, H 2.88
I21: K 4.61, T 4.26
T20: C 2.92, F 1.57, D 3.61, A 3.64, M 3.67
E6: G 3.3, K 2.79
S24: W 1.61
E10: L 2.98, K 3.05, G 2.84, Q 3.5
D1: N 3.09, A 2.69, F 2.58

Variants of: B2
Assay: as above
Details: c terminus: a fixed tail appended

Protein stability index, by site and new letter:
A19: H 2.24, F 1.5, G 2.23, N 2.49, K 1.64, Y 2.11, D 2.76, M 2.22, R 2.25, P 2.7, I 2.76, E 2.33, S 1.65, Q 2.77, T 1.99, W 1.37
L16: Q 2.73, I 2.33, F 1.22, V 2.2, R 2.65, K 3.18, T 3.25, Y 2.06, A 2.24, G 2.94, E 3.22, S 1.84, N 2.22, M 2.37, P 2.32, D 3.83, H 2.97, C 1.59
A17: F 2.04, L 2.34, D 2.7, C 2.28, R 2.05, I 1.58, H 2.08, Y 1.62, E 2.98, G 2.79, S 2.27, T 2.55, V 2, P 1.95, M 1.4, N 2.44, Q 2.33, K 2.28
D13: K 1.68, N 2.46, H 1.75, F 1.87, T 1.91, P 2.2, I 2.42, L 1.81, M 2.12, C 2.17, G 3.29, S 2.04, V 1.73, R 2.66, A 1.34, Q 1.91
L15: N 2.74, Y 1.98, W 1.93, F 2.23, S 3.6, R 2.43, E 2.92, C 2.87, H 2.38, T 2.32, Q 2.96, D 2.83, G 2.35, I 2.25, P 2.43, K 3.64, V 2.14, M 2.19
K21: E 3.6, P 2.48, L 2.02, M 1.65, I 1.42, V 2.53, Q 3.78, C 1.88, S 1.92, W 2.02, N 2.11, Y 1.13, H 1.89, G 1.81, D 2.36, A 2.04
A18: Y 2.25, G 2.61, W 2.62, H 1.96, S 2.18, F 1.77, M 1.9, N 2.01, C 1.51, R 1.56, I 1.42, V 2.31, Q 3.07, P 2.18, D 2.62, K 1.77, E 2.42, L 2.7, T 1.99
D20: L 1.84, S 1.48, G 2.29, P 1.41, H 2.14, E 1.61, I 1.71, M 2.22, C 1.99, Q 1.53, V 3.92, N 1.3, R 2.57, T 2.34, F 1.39, K 1.4
M11: R 2.05, E 2.56, P 2.56, C 1.55, Y 1.31, K 2.15, F 1.73, L 2.44, Q 2.34, W 2.21, I 2.32, S 2.62, D 2.42, H 2.47, T 2.62, N 2.43, G 1.62, V 3.05, A 2.02
D9: T 1.85, V 3.1, W 2.67
A23: W 1.22, H 1.78, Y 2.02, V 1.54, P 2.24, I 1.65, C 2.57, K 2.37, E 2.77, F 1.81, D 2.45, T 2.71, R 1.91, Q 2.4, S 1.97, M 2.18, G 1.83, N 2.3, L 1.67
N14: A 1.69, Y 1.86, R 2.39, H 1.94, K 1.73, F 1.84, D 2.25, S 2.38, M 2.37, T 1.45, G 2.05, V 2.43, I 1.85, W 1.45, P 2.2, E 2.16, Q 2.01
K10: C 1.35, N 2.6, V 1.75, G 2.25, S 2.83, Q 1.75, I 1.49, E 2.23, D 1.91, Y 1.61, R 1.43, A 1.81, F 1.68, P 2.42, T 1.75, H 1.97, L 1.89, M 2.41
A12: C 2.56, S 2.2, E 2.05, N 2.88, H 2.33, L 1.53, K 1.97, F 1.58, W 1.32, Y 1.77, Q 2.07, R 1.56, I 2.87, T 2.97, P 2.54, M 2.64, G 2.36, D 2.92
Y22: T 2.72, S 3.66, D 2.03, E 3.04, K 3.07, G 3.2, V 2.27, L 1.61, H 2.18, M 1.93, P 2.73, R 3.05, W 1.67, Q 2.17, I 2.22, N 3.3, F 1.92
L24: A 2.02, V 2, C 2.37, S 2.73, E 3.11, M 2.33, W 1.86, D 3.62, F 2.01, R 2.24, Q 2.16, P 2.17, I 2.02, T 2.42, N 2.66, G 2.78, K 2.55, Y 1.89, H 2.49

Source: the supplement of paper PMC10567573
